From patent US20150098946A1 (Genentech, published 2015)
Where a chain is given by its changes, count along the chain named.

B1: anti-TAT194 monoclonal antibody R4205 (antibody, V domains shown)
VH: QVQLKESGPGLVKPSQSLSLTCTVTGYSITSDYVWNWIRQFPGNKLEWMGYIHYSGGTSYNPSLKSRISITRDTSKNQFFLHLNSLTTEDTATYYCARGNYDWAFAYWGQGTLVTVSA
VL: DVQITQSPSYLAASPGETITINCRASKSISKYLAWYQDKPGKTNKLLISSGSTLQSGIPSRFSGSGSGADFTLTISSLEPEDFAMYYCQQHNEYPWTFGGGTKLEIKR
notes: Monoclonal antibody from a mouse hybridoma; kappa VL; also called anti-RET murine monoclonal antibody clone 4205
B2: anti-TAT194 monoclonal antibody R4206 (antibody, V domains shown)
VH: DVQLQESGPGLVKPSQSLSLTCTVTGFSITSDYAWNWIRQFPGNKLEWMAYITYSGDTGYNPSLKSRISVTRDTSKNQFFLQLSSVTTEDTATYYCARGNYDWVFAYWGQGTLVTVSA
VL: B1 VL with D38E, S49Y, A69T, H91Y, N92I
notes: Monoclonal antibody from a mouse hybridoma; kappa VL
B3: anti-TAT194 monoclonal antibody R4207 (antibody, V domains shown)
VH: B2 VH
VL: B1 VL with D38E, S49Y, A69T, H91Y, N92I
notes: as for B2
B4: anti-TAT194 monoclonal antibody R4212 (antibody, V domains shown)
VH: DVQLQESGPGLVAPSQSLSITCTVSGFSLSRYSVHWVRQPPGKGLEWLGMIWLGGSTDYNSALKSRLSISKDISKSQVFLKMNSLQTDDTAMYYCARNLDSRGFAHWGQGTLVTVSA
VL: DVLMTQTPLSLPVSLGDQASISCRSSQSIVHSNGNTYLEWYLQKPGQSPKLLIYKVSNRFSGVPDRFSGSGSGTDFTLKISRVEAEDLGVYYCFQGSHVPPTFGGGTKLEIKR
notes: as for B2
B5: anti-TAT194 monoclonal antibody R4209 (antibody, V domains shown)
VH: EVNLEESGGGLVQPGGSMKLSCVASGFTFSNYWMNWVRQSPEKGLEWVADISLKSNNYGTHYAESVNGRFTISRDDSTSSVYLQMNNLRAEDTGIYYCAVYYYGVKFYYFVLGYWGQGTSVTVSS
VL: DIVMTQSHKFMSTSVGDRVSITCKASQDVSTAVAWYQQKPGQSPKLLIYWGSTRHTGVPDRFTGVGSGTDYSLTISSVQAEDLALYYCQQHYNIPWTFGGGTKLEIKR
notes: as for B2
B6: anti-TAT194 monoclonal antibody R4204 (antibody, V domains shown)
VH: QVQLQQSGAELAKPGTSVKMSCKASGYTFTTYWMHWIKQRPGQGLEWIGYINPSTGYSEYNQKFKDKATLTADRSSSTAYMQLSSLTSEDSTVYYCARWRFYGSTYGMDYWGQGTSVTVSS
VL: QIVLTQSPALMSAFPGEKVTLTCSASSSVTYMYWYQQKPRSSPKPWIYLTSKLASGVPSRFSGSGSGTSFSLTITSMEAEDAATYYCQQWTGNPLTFGAGTKLELKR
notes: as for B2
B7: anti-TAT194 monoclonal antibody R4203 (antibody, V domains shown)
VH: EVQLQQSGPELVKPGASMKISCKASGYSFTGFTMNWVKQSHGKNLEWIGLINPYNGVTNYNQKFRGKATLTVDESSSTAYMDLLSLTSEDSAVYYCARHYSFAMDYWGQGTSVTVSS
VL: DIVLTQSPASLAVSLGQRATISCRASESVDGYGSSFMHWYQQKPGQPPKLLIYRTSNLESGIPARFSGSGSTTDFTLTINPVEADDVATYYCQQNSEDRTFGGGTKLEIKR
notes: as for B2
B8: anti-TAT194 monoclonal antibody R4208 (antibody, V domains shown)
VH: QVHLQQSGSELRSPGSSVKLSCKDFDSEVFPIAYMSWVRQKPGHGFEWIGDILPNIGRTIYGEKFEDKATLDADTVSNTAYLELNSLTSEDSAMYYCGRSITRAWFAYWGQGTLVTVSV
VL: DIQMTQSPSSLSASLGERVSLTCRASQEISGYLSWFQQKPDGTIKRLIYAASTLDSGVPKRFSGSRSGSDYSLTISSLASEDFADYFCLQYAGNPFTFGSGTKLEIKR
notes: as for B2

Target: T1, TAT194 polypeptide as used in the BIAcore analysis (human, UniProt P07949 29-635, limits assumed)
T1 construct: The construct used for the BIAcore analysis (extracellular domain, tag, fusion, isoform) is not described; also called RET
Assay: standard BIAcore analysis

Row | Binder | Kd [nM]
1 | B1 | 0.18
2 | B2 | 0.34
3 | B3 | 0.54
4 | B4 | 105
5 | B5 | 2.55
6 | B6 | 169
7 | B7 | 0.1
8 | B8 | 1.25
